{"source": "patent US20210070855A1", "about": "(NANJING LEGEND BIOTECH, published 2021)", "binders": {"B1": {"name": "112E5D9 (antibody, V domains shown)", "VH": "QVQLQQSGPQLVRPGASVKISCKASGYSFTNNWMHWMKQRPGQGLEWIGMIDPSDSETRLNQQFRDKATLTVDKTSSTAYMQLSSPTSEDSAVYYCARLGRYYFDYWGLGTTLTVSS", "VL": "NIVMTQSPKSMSVSVGERVTMNCRASEIVGTYVSWYQQKPEQSPKLLIYGAFNRYTGVPDRFTGSRSGTDFSLNISNVQAEDLADYLCGQSYDSPYTFGGGTKLEIK", "notes": "purified murine anti-CD47 hybridoma antibody; same VH and VL as 112E5F2 and 112E5H7; also called 10-112E5D9"}, "B2": {"name": "98E2E7 (antibody, V domains shown)", "VH": "QVQLQQSGPQLVRPGASVKISCKASGYSFTNHWMHWMKQRPGQGLEWIGMIDPSDSETRLNQQFKDKATLTVDKSSSTAYMQLSSPTSEDSAVFYCARLGRYYFDYWGQGTTLTVSS", "VL": "NIVMTQSPKSMSVSVGERVTLSCRASDIVGTYVSWYQQKPEQSPKLLIYGASNRYTGVPDRFTGSRSATDFSLTISNVQAEDLADYLCGQSYDSPYTFGGGTKLEIK", "notes": "purified murine anti-CD47 hybridoma antibody; same VH and VL as 98E2E12; also called 03-98E2E7"}, "B3": {"name": "112E5F2 (antibody, V domains shown)", "VH": "QVQLQQSGPQLVRPGASVKISCKASGYSFTNNWMHWMKQRPGQGLEWIGMIDPSDSETRLNQQFRDKATLTVDKTSSTAYMQLSSPTSEDSAVYYCARLGRYYFDYWGLGTTLTVSS", "VL": "NIVMTQSPKSMSVSVGERVTMNCRASEIVGTYVSWYQQKPEQSPKLLIYGAFNRYTGVPDRFTGSRSGTDFSLNISNVQAEDLADYLCGQSYDSPYTFGGGTKLEIK", "notes": "purified murine anti-CD47 hybridoma antibody; same VH and VL as 112E5D9 and 112E5H7; also called 11-112E5F2"}, "B4": {"name": "107F11C4 (antibody, V domains shown)", "VH": "EVQLQQSGAEFVKPGASVKLSCTASGFNIEDTYMHWVKQRPEQGLEWIGMIDPANGKTKYGPRFQDKATVTADTSSNTANLQLSSLTSEDTAVYYCADGIGYYVGAMDYWGQGTSVTVSS", "VL": "DIQMNQSPSSLSASLGDTITITCHASQNINVWLSWYQQKPGNIPKLLIYKASNLHTGVPSRFSGSGSGTGFTLTISSLQPEDIATYYCQQGHSYPYTFGGGTKLEIK", "notes": "purified murine anti-CD47 hybridoma antibody; same VH and VL as 107F11B11 and 107F11F10"}, "B5": {"name": "107F11B11 (antibody, V domains shown)", "VH": "EVQLQQSGAEFVKPGASVKLSCTASGFNIEDTYMHWVKQRPEQGLEWIGMIDPANGKTKYGPRFQDKATVTADTSSNTANLQLSSLTSEDTAVYYCADGIGYYVGAMDYWGQGTSVTVSS", "VL": "DIQMNQSPSSLSASLGDTITITCHASQNINVWLSWYQQKPGNIPKLLIYKASNLHTGVPSRFSGSGSGTGFTLTISSLQPEDIATYYCQQGHSYPYTFGGGTKLEIK", "notes": "purified murine anti-CD47 hybridoma antibody; same VH and VL as 107F11C4 and 107F11F10; also called 07-107F11B11"}, "B6": {"name": "108C10A6 (antibody, V domains shown)", "VH": "QMQLQQSGPQLVRPGASVKISCKTSGYSFTHHWIHWMKQRPGQGLEWIGMIDPSDSETRLSQKFKDKATLTVDASSSTAYMQLNSPTSEDSALYFCARLGRYYFDYWGQGTTLTVSS", "VL": "NIVMTQSPRSMSMSVGERVTLSCKASENVGTYISWYQQKPDQSPKLLIYGASNRYTGVPDRFTGSGSGTDFTLTISTVQAEDLADYHCGESYGHLYTFGGGTKLEIK", "notes": "also called murine anti-CD47 antibody 108C10A6; 108C10A6/108C10F5"}, "B7": {"name": "108C10F5 (antibody, V domains shown)", "VH": "QMQLQQSGPQLVRPGASVKISCKTSGYSFTHHWIHWMKQRPGQGLEWIGMIDPSDSETRLSQKFKDKATLTVDASSSTAYMQLNSPTSEDSALYFCARLGRYYFDYWGQGTTLTVSS", "VL": "NIVMTQSPRSMSMSVGERVTLSCKASENVGTYISWYQQKPDQSPKLLIYGASNRYTGVPDRFTGSGSGTDFTLTISTVQAEDLADYHCGESYGHLYTFGGGTKLEIK", "notes": "purified murine anti-CD47 hybridoma antibody; separate subclone with its own curves; same VH and VL as 108C10A6; also called 09-108C10F5"}}, "key": {"[1]": {"biological_target": "T1, cynomolgus monkey CD47 on CHO-K1 cells (cynomolgus monkey, UniProt A0A5F8AK49 19-323 (rhesus entry))", "T1 construct": "whole, on cells; also called CHO-K1/cyno CD47; CHO-K1/cynoCD47", "assay": "flow cytometry on CHO-K1/cyno CD47 cells; unit taken from the axis", "method": "(§1) Briefly, binding to cell-expressed cyno CD47 was evaluated on cynomolgus monkey CD47 over-expressing CHO cells. Anti-CD47 antibody dilution series was prepared in FACS buffer. CHO-K1/cynomolgus monkey CD47 cell were transferred to a 96-well U-bottom plate and add CD47 antibody dilution. After 30 minutes incubation at 4° C., cells were washed twice with FACS buffer. […] The cells were washed twice with wash buffer, and then analyzed for binding by using FACSCalibur (BD Bioscience, San Jose, Calif.) and Flowjo software."}, "human CD47 on cells [2]": {"biological_target": "T2, human CD47 on cells (human, UniProt Q08722 19-323)", "T2 construct": "also called CHO-K1/huCD47; human CD47 over-expressed in CHO-K1 cells", "assay": "flow cytometry, blocking of human SIRPα binding to CHO-K1/huCD47 cells", "method": "(§2) After 30 minutes incubation at 4° C., cells were washed twice with FACS buffer."}, "human CD47 on cells [3]": {"biological_target": "T2, human CD47 on cells", "assay": "flow cytometry on CHO-K1/huCD47 cells; x axis Log(nM), unit taken from the axis", "method": "(§3) Binding to cell-expressed human CD47 was evaluated on human CD47 over-expressing CHO cells (GenScript, Cat #M00581). Anti-CD47 antibody dilution series was prepared in FACS buffer. CHO-K1/human CD47 cells were transferred to a 96-well U-bottom plate and anti-CD47 antibody dilution was added. […] The cells were then washed twice with wash buffer. Cells were analyzed for binding by FACSCalibur (BD Bioscience, San Jose, Calif.) and Flowjo software."}, "CD47 protein [4]": {"biological_target": "T3, CD47 protein", "T3 construct": "also called CD47 (ELISA antigen); not shown: The carrier of the coated recombinant protein (an Fc tag as in CD47-Fc, or a His tag as in CD47-His)", "assay": "ELISA on CD47 protein; x axis is log10 of mAb (ng/ml), unit taken from the axis"}, "[5]": {"biological_target": "T1, cynomolgus monkey CD47 on CHO-K1 cells", "assay": "flow cytometry on CHO-K1/cyno CD47 cells", "method": "as §1"}, "human CD47 on cells [6]": {"biological_target": "T2, human CD47 on cells", "assay": "flow cytometry on CHO-K1/huCD47 cells; x axis Log(nM)", "method": "as §3"}, "CD47 protein [7]": {"biological_target": "T3, CD47 protein", "assay": "ELISA on CD47 protein; x axis is log10 of mAb (ng/ml)"}, "human CD47 on cells [8]": {"biological_target": "T2, human CD47 on cells", "assay": "flow cytometry, blocking of human SIRPα binding to CHO-K1/huCD47 cells; the box on the sheet is labelled EC50; unit taken from the axis", "method": "as §2"}, "[9]": {"biological_target": "T1, cynomolgus monkey CD47 on CHO-K1 cells", "assay": "flow cytometry on CHO-K1/cyno CD47 cells; unit taken from the axis", "remark": "listed apart in the source", "method": "as §1"}, "[10]": {"biological_target": "T1, cynomolgus monkey CD47 on CHO-K1 cells", "assay": "flow cytometry on CHO-K1/cyno CD47 cells; unit taken from the axis", "remark": "listed apart in the source", "method": "as §1"}, "human CD47 on cells [11]": {"biological_target": "T2, human CD47 on cells", "assay": "flow cytometry on human red blood cells; unit taken from the axis"}, "human CD47-His protein": {"biological_target": "T4, human CD47-His protein (human, UniProt Q08722 19-139, limits assumed)", "T4 construct": "It includes the signal peptide and the membrane-spanning region, which a soluble protein would lack; not shown: His tag", "assay": "SPR (Biacore T200), antibody captured, human CD47-His as analyte, 1:1 model"}}, "note": "Like-named read-outs stand apart in the source and are kept apart here."}
{"binder": "B1", "values": [{"measurement": "EC50", "setting": "[1]", "result": 1.45, "unit": "nM"}, {"measurement": "IC50 (read off the curve)", "setting": "human CD47 on cells [2]", "result": "~4", "unit": "nM"}, {"measurement": "EC50", "setting": "human CD47 on cells [3]", "result": 3.47, "unit": "nM"}, {"measurement": "EC50", "setting": "CD47 protein [4]", "result": 4.77, "unit": "ng/mL"}]}
{"binder": "B2", "values": [{"measurement": "EC50 (read off the curve)", "setting": "[5]", "result": "~3", "unit": "nM"}, {"measurement": "EC50 (read off the curve)", "setting": "human CD47 on cells [6]", "result": "~7", "unit": "nM"}, {"measurement": "EC50", "setting": "CD47 protein [4]", "result": 3.78, "unit": "ng/mL"}]}
{"binder": "B3", "values": [{"measurement": "EC50 (read off the curve)", "setting": "CD47 protein [7]", "result": "~2", "unit": "ng/mL"}, {"measurement": "EC50", "setting": "[1]", "result": 1.81, "unit": "nM"}, {"measurement": "EC50", "setting": "human CD47 on cells [3]", "result": 3.15, "unit": "nM"}, {"measurement": "IC50", "setting": "human CD47 on cells [8]", "result": 2.98, "unit": "nM"}]}
{"binder": "B4", "values": [{"measurement": "EC50", "setting": "[9]", "result": 1.13, "unit": "nM"}, {"measurement": "EC50", "setting": "[10]", "result": 1.13, "unit": "nM"}, {"measurement": "IC50", "setting": "human CD47 on cells [8]", "result": 1.07, "unit": "nM"}]}
{"binder": "B5", "values": [{"measurement": "EC50 (read off the curve)", "setting": "[5]", "result": "~1", "unit": "nM"}, {"measurement": "EC50 (read off the curve)", "setting": "CD47 protein [7]", "result": "~5", "unit": "ng/mL"}, {"measurement": "IC50 (read off the curve)", "setting": "human CD47 on cells [2]", "result": "~2", "unit": "nM"}]}
{"binder": "B6", "values": [{"measurement": "EC50", "setting": "human CD47 on cells [11]", "result": 55.8, "unit": "ng/mL"}, {"measurement": "EC50", "setting": "[1]", "result": 2.03, "unit": "nM"}, {"measurement": "Kd", "setting": "human CD47-His protein", "result": 0.74, "unit": "nM"}, {"measurement": "koff", "setting": "human CD47-His protein", "result": 0.00032, "unit": "s⁻¹"}, {"measurement": "kon", "setting": "human CD47-His protein", "result": 430000, "unit": "M⁻¹ s⁻¹"}, {"measurement": "IC50 (read off the curve)", "setting": "human CD47 on cells [2]", "result": "~1", "unit": "nM"}, {"measurement": "EC50", "setting": "human CD47 on cells [3]", "result": 8.59, "unit": "nM"}, {"measurement": "EC50", "setting": "CD47 protein [4]", "result": 62.1, "unit": "ng/mL"}]}
{"binder": "B7", "values": [{"measurement": "EC50 (read off the curve)", "setting": "human CD47 on cells [6]", "result": "~5", "unit": "nM"}, {"measurement": "EC50", "setting": "[1]", "result": 2.01, "unit": "nM"}, {"measurement": "EC50", "setting": "CD47 protein [4]", "result": 23.4, "unit": "ng/mL"}]}
